Assay results published in publication PMC6616073.
No end group written: not given here.

Molecular target: membrane-bound Torpedo californica nicotinic acetylcholine receptor (Torpedo californica)
Assay: radioligand binding

Sequence of membrane-bound Torpedo californica nicotinic acetylcholine receptor (Torpedo californica) (P02710 25-461 limits assumed, chain 1 of 4): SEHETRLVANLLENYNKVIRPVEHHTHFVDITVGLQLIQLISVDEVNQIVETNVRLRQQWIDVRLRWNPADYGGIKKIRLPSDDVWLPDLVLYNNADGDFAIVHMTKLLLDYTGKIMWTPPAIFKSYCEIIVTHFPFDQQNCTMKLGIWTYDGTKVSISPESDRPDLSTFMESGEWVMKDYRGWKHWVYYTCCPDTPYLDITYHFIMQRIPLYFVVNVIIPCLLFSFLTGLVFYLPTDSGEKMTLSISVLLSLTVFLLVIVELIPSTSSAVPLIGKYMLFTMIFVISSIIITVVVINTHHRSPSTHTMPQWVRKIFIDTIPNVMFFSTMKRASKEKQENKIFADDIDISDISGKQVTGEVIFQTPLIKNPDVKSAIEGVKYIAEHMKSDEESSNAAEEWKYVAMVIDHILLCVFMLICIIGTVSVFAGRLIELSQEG
Sequence of membrane-bound Torpedo californica nicotinic acetylcholine receptor (Torpedo californica) (P02712 25-493 limits assumed, chain 2 of 4, further chain): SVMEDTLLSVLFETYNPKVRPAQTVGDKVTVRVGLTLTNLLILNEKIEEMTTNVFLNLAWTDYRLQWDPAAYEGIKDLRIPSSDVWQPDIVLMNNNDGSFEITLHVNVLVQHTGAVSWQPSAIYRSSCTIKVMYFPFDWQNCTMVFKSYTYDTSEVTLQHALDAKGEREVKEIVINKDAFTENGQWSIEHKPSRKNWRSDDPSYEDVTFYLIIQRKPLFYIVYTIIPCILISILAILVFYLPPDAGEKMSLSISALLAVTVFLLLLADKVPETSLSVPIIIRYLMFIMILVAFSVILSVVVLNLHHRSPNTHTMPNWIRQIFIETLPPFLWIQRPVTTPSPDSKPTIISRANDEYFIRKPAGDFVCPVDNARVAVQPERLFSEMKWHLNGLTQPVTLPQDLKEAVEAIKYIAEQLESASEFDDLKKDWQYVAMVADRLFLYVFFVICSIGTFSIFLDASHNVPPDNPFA
Sequence of membrane-bound Torpedo californica nicotinic acetylcholine receptor (Torpedo californica) (P02714 18-506 limits assumed, chain 3 of 4, further chain): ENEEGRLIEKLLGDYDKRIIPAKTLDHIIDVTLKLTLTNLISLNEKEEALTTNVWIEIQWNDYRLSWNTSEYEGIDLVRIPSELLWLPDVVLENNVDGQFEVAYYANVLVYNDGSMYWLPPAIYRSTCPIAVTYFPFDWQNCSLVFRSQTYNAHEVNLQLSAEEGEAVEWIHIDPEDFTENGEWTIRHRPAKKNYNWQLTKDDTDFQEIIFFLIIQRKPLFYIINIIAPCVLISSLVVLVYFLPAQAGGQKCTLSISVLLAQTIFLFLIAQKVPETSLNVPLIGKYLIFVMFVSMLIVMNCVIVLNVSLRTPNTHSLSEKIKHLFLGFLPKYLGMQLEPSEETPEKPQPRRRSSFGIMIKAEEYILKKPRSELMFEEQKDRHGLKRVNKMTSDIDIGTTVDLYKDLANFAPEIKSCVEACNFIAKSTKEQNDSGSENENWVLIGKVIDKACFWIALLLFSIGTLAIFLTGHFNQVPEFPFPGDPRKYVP
Sequence of membrane-bound Torpedo californica nicotinic acetylcholine receptor (Torpedo californica) (P02718 22-522 limits assumed, chain 4 of 4, further chain): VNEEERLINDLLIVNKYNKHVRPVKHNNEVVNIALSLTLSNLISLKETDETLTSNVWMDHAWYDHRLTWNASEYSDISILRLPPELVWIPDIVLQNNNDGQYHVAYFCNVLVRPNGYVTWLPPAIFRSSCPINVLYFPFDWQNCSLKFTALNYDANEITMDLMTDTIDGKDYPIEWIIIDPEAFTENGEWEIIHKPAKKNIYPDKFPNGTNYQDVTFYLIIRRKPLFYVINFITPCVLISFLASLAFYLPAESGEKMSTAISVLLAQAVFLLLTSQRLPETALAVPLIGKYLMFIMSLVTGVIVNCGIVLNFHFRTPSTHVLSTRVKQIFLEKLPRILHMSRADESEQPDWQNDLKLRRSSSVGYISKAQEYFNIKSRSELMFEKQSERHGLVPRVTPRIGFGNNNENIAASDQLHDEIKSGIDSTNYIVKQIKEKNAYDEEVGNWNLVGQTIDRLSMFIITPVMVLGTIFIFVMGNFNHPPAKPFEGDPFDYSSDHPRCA

Binder | IC50
CTRTYYTPTRMC [Lynx1 short linear (4), shorter loop II fragment of human Lynx1 with free terminal Cys] | 15.6 µM
CTTRTYYTPTRMKVSKC (not fully specified (bridges); cysteine pairing not given here) | 4.9 µM

Further binders by falling IC50, results first:

IC50 | Binder
74.1 µM | CTRTYYTPTRMC (not fully specified (bridges); cysteine pairing not given here) [Lynx1 short (3), shorter loop II fragment of human Lynx1 with terminal Cys, disulfide-cyclised]
13.2 µM | TTRTYYTPTRMKVSK [Lynx1 linear (2), synthetic 15-membered loop II fragment of human Lynx1]
